Source: US20250092135A1 (NANJING LEADS BIOLABS, published 2025)

Columns and labels:
[1] = biological target: T1, human MUC16 protein (ECT_TM huMuc16) on 293T cells (human); test: flow cytometry, 293T/hMUC16 cells, PE anti-human IgG Fc secondary, MFI; EC50 table under the plot, unit from the axis Conc.(nM)
T1 chain: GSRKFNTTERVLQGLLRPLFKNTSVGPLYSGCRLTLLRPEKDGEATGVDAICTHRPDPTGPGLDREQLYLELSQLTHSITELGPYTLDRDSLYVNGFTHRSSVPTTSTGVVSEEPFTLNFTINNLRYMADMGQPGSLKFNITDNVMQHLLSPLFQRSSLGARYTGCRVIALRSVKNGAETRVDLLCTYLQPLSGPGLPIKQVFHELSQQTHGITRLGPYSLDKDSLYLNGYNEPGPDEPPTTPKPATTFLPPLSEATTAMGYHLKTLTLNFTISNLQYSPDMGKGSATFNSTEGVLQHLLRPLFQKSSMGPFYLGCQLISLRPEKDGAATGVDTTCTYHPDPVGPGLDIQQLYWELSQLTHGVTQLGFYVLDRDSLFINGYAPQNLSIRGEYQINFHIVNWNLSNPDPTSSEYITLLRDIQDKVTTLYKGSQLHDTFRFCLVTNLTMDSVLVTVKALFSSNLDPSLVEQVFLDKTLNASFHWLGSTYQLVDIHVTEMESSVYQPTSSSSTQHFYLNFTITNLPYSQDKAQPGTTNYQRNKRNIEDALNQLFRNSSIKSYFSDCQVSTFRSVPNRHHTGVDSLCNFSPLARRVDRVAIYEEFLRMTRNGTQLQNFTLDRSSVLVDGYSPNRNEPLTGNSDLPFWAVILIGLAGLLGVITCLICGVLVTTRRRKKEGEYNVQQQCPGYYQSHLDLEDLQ
Description: The serially diluted anti-human MUC16 antibodies (at an initial concentration of 200 nM, 4-fold dilution, 8 points in total) obtained in the present application were added to the cells, and the cells were incubated at 4° C. for 30 min. The cells were washed twice with PBS, and then fluorescent secondary antibody R-PE-conjugated AffiniPure Goat Anti-Human IgG, Fcγ Fragment Specific (Jackson ImmunoResearch, Cat #109-116-098) was added. The cells were incubated at 4° C. for 30 min. The cells were washed twice with PBS and then resuspended, and finally, fluorescence signals were detected using a BD Accuri C5 (BD Bioscience) flow cytometer.

[2] = biological target: T2, Rhesus monkey MUC16-His (rhesus monkey); test: BLI (ForteBio Octet RED96), antibody on AHC sensor, 1:1 model
T2 construct: The entry includes the C-terminal 6xHis tag; also called membrane-proximal end of the extracellular region of the rhesus monkey MUC16 protein
T2 chain: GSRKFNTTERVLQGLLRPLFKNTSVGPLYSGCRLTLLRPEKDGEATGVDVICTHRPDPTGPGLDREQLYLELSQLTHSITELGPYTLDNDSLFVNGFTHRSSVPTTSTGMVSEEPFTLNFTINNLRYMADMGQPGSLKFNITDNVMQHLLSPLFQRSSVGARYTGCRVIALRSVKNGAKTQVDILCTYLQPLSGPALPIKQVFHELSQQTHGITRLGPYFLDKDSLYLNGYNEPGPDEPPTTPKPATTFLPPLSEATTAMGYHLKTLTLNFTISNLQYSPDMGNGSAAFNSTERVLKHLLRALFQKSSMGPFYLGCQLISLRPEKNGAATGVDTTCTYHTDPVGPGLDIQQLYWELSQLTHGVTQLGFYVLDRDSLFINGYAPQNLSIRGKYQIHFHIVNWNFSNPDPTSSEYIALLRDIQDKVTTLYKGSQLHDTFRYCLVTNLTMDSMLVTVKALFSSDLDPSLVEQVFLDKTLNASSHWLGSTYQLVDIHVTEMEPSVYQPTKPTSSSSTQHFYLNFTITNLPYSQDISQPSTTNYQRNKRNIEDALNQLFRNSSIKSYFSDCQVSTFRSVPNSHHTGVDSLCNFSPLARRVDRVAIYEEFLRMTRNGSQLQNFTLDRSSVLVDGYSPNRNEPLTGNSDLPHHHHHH

[3] = biological target: T3, Human MUC16-His (human); test: as above
T3 construct: The entry includes the C-terminal 6xHis tag; also called membrane-proximal end of the extracellular region of the human MUC16 protein; Human MUC16 protein
T3 chain: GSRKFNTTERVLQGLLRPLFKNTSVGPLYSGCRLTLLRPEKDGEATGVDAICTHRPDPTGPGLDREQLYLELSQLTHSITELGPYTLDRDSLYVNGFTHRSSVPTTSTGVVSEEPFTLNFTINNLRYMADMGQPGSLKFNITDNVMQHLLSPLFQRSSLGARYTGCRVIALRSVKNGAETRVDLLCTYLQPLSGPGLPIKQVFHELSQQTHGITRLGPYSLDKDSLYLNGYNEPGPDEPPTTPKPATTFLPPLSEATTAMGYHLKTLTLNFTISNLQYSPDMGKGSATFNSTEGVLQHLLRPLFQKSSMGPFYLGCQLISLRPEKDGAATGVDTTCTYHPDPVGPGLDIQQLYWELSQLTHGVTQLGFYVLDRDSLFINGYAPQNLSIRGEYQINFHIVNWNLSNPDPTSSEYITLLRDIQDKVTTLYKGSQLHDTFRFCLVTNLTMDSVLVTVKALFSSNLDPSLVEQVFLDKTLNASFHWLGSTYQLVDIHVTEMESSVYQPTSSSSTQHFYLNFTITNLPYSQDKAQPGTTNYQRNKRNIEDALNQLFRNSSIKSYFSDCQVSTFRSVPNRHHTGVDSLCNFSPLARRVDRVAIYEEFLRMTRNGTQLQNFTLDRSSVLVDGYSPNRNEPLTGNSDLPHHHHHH

B1: anti-MUC16 antibody 776.1(C33S) (antibody, human IgG1, kappa, L234A L235A, V domains shown)
VH: EVQLQQSGPELVKPGASVKISCKASGYTFTDYNIHWVKQSHGKILEWIGYIYPYNGVSDYNQNFKSKATLIVDNSSNTAYMELRSLTSEDSAVYYCARWDFGSGYYFDYWGQGTTLTVSS
VL: QIVLSQSPAILFASPGETVTMTCRASSSVIYMSWNQQKPGSSPKPWIYGTSTLASGVPTRFSGSGSGTSYSLTISRVEAEDAATYYCQQWSSNPFTFGSGTKLEIKR
With B1 the EC50 [1] was 12.9 nM.

B2: humanized anti-MUC16 antibody Hu-L4H7 (antibody, human IgG1, kappa, L234A L235A, V domains shown)
VH: QVQLVQSGAEVKKPGASVKVSCKASGYTFTDYNIHWVRQAPGQGLEWMGYIYPYNGVSDYNQNFKSRVTMTTDTSTSTAYMELRSLRSDDTAVYYCARWDFGSGYYFDYWGQGTLVTVSS
VL: EIVLTQSPATLSLSPGERATLSCRASSSVIYMSWYQQKPGQAPRLLIYGTSTLASGIPARFSGSGSGTDFTLTISSLEPEDFAVYYCQQWSSNPFTFGQGTKLEIKR
notes: human IgG1 with L234A, L235A, D265A, P329A and kappa; Biotinylated in the CA125 ELISA; also called humanized MUC-16 antibody
B2 was tested, and the Kd [2] was 1.04 nM, the koff [2] was 0.000263 s⁻¹ and the kon [2] was 254000 M⁻¹ s⁻¹. The Kd [3] was 2.9 nM, the koff [3] was 0.000911 s⁻¹ and the kon [3] was 314000 M⁻¹ s⁻¹.
